From paper PMC9307851

Target: DNMT3B MTase domain (residues 569-853), R670Q (human) (UniProt Q9UBC3)

- in vitro DNA methylation efficiency of the DNMT3B-DNMT3B complex on CpG DNA, reduction against WT: 3 fold
Substance: DNMT3B MTase domain (residues 569-853), R670Q (from UniProt Q9UBC3-1 569-853) (domain or fragment)
